Measured values: patent US20250215103A1 (Hoffmann-La Roche, published 2025)
Numbering of substitutions follows the chain as printed.

B1: bispecific CrossMab 8017 (Pembrolizumab/1026) (bispecific antibody, human IgG1, kappa, L234A L235A)
heavy 1: QSMQESGPGLVKPSQTLSLTCTVSGFSLSSYAMSWIRQHPGKGLEWIGYIWSGGSTDYASWAKSRVTISKTSTTVSLKLSSVTAADTAVYYCARRYGTSYPDYGDASGFDPWGQGTLVTVSSASTKGPSVFPLAPSSKSTSGGTAALGCLVEDYFPEPVTVSWNSGALTSGVHTFPAVLQSSGLYSLSSVVTVPSSSLGTQTYICNVNHKPSNTKVDEKVEPKSCDKTHTCPPCPAPEAAGGPSVFLFPPKPKDTLMISRTPEVTCVVVDVSHEDPEVKFNWYVDGVEVHNAKTKPREEQYNSTYRVVSVLTVLHQDWLNGKEYKCKVSNKALGAPIEKTISKAKGQPREPQVCTLPPSRDELTKNQVSLSCAVKGFYPSDIAVEWESNGQPENNYKTTPPVLDSDGSFFLVSKLTVDKSRWQQGNVFSCSVMHEALHNHYTQKSLSLSP
light 1: AIQLTQSPSSLSASVGDRVTITCRASQSISSYLAWYQQKPGKAPKLLIYRASTLASGVPSRFSGSGSGTDFTLTISSLQPEDFATYYCQQNYASSNVDNTFGGGTKVEIKRTVAAPSVFIFPPSDRKLKSGTASVVCLLNNFYPREAKVQWKVDNALQSGNSQESVTEQDSKDSTYSLSSTLTLSKADYEKHKVYACEVTHQGLSSPVTKSFNRGEC
heavy 2: not shown
light 2: QVQLVQSGVEVKKPGASVKVSCKASGYTFTNYYMYWVRQAPGQGLEWMGGINPSNGGTNFNEKFKNRVTLTTDSSTTTAYMELKSLQFDDTAVYYCARRDYRFDMGFDYWGQGTTVTVSSASVAAPSVFIFPPSDEQLKSGTASVVCLLNNFYPREAKVQWKVDNALQSGNSQESVTEQDSKDSTYSLSSTLTLSKADYEKHKVYACEVTHQGLSSPVTKSFNRGEC
B2: bispecific CrossMab 8018 (Pembrolizumab/51A165) (bispecific antibody, human IgG1, kappa, L234A L235A)
heavy 1: EVQLQQSGPELVKPGASVKMSCKASGYTFTSYVMHWVKQKPGQGLEWIGYVNPYNDDTKYNEKFRGKATLTSDKSSSTAYMELSSLTSEDSAVYYCARSYYYYSMDNWGQGTSVTVSSASTKGPSVFPLAPSSKSTSGGTAALGCLVEDYFPEPVTVSWNSGALTSGVHTFPAVLQSSGLYSLSSVVTVPSSSLGTQTYICNVNHKPSNTKVDEKVEPKSCDKTHTCPPCPAPEAAGGPSVFLFPPKPKDTLMISRTPEVTCVVVDVSHEDPEVKFNWYVDGVEVHNAKTKPREEQYNSTYRVVSVLTVLHQDWLNGKEYKCKVSNKALGAPIEKTISKAKGQPREPQVCTLPPSRDELTKNQVSLSCAVKGFYPSDIAVEWESNGQPENNYKTTPPVLDSDGSFFLVSKLTVDKSRWQQGNVFSCSVMHEALHNHYTQKSLSLSP
light 1: QIVLTQSPAIMSASPGEKVTVTCSASSSIRYMHWYQQKPGTSPKRWIYDTSELASGVPARFSGSGSGTSYSLTINSMEAEDAATYYCHQRSSYPFTFGGGTKLEIKRTVAAPSVFIFPPSDRKLKSGTASVVCLLNNFYPREAKVQWKVDNALQSGNSQESVTEQDSKDSTYSLSSTLTLSKADYEKHKVYACEVTHQGLSSPVTKSFNRGEC
heavy 2: not shown
light 2: B1 light 2
B3: bispecific 2+1 CrossMab 8156 (PD1-0103-0312/TfR(51A165) BBB-format) (bispecific antibody, human IgG1, kappa, L234A L235A)
light 1: EVQLLESGGGLVQPGGSLRLSCAASGFSFSSYTMSWVRQAPGKGLEWVATISGGGRDIYYPDSVKGRFTISRDNSKNTLYLQMNSLRAEDTAVYYCVLLTGRVYFALDSWGQGTLVTVSSASVAAPSVFIFPPSDEQLKSGTASVVCLLNNFYPREAKVQWKVDNALQSGNSQESVTEQDSKDSTYSLSSTLTLSKADYEKHKVYACEVTHQGLSSPVTKSFNRGEC
light 2: B2 light 1
heavy 1: DIVMTQSPDSLAVSLGERATINCKASESVDTSDNSFIHWYQQKPGQSPKLLIYRSSTLESGVPDRFSGSGSGTDFTLTISSLQAEDVAVYYCQQNYDVPWTFGQGTKVEIKSSASTKGPSVFPLAPSSKSTSGGTAALGCLVKDYFPEPVTVSWNSGALTSGVHTFPAVLQSSGLYSLSSVVTVPSSSLGTQTYICNVNHKPSNTKVDKKVEPKSCDKTHTCPPCPAPEAAGGPSVFLFPPKPKDTLMISRTPEVTCVVVDVSHEDPEVKFNWYVDGVEVHNAKTKPREEQYNSTYRVVSVLTVLHQDWLNGKEYKCKVSNKALGAPIEKTISKAKGQPREPQVCTLPPSRDELTKNQVSLSCAVKGFYPSDIAVEWESNGQPENNYKTTPPVLDSDGSFFLVSKLTVDKSRWQQGNVFSCSVMHEALHNHYTQKSLSLSPGKGGGGSGGGGSEVQLQQSGPELVKPGASVKMSCKASGYTFTSYVMHWVKQKPGQGLEWIGYVNPYNDDTKYNEKFRGKATLTSDKSSSTAYMELSSLTSEDSAVYYCARSYYYYSMDNWGQGTSVTVSSASTKGPSVFPLAPSSKSTSGGTAALGCLVEDYFPEPVTVSWNSGALTSGVHTFPAVLQSSGLYSLSSVVTVPSSSLGTQTYICNVNHKPSNTKVDEKVEPKSCD
heavy 2: not shown
B4: bispecific 2+1 CrossMab 8157 (PD1-0103-0312/TfR(51A165) TCB-format) (bispecific antibody, human IgG1, kappa, L234A L235A)
light 1: B3 light 1
light 2: B2 light 1
heavy 1: DIVMTQSPDSLAVSLGERATINCKASESVDTSDNSFIHWYQQKPGQSPKLLIYRSSTLESGVPDRFSGSGSGTDFTLTISSLQAEDVAVYYCQQNYDVPWTFGQGTKVEIKSSASTKGPSVFPLAPSSKSTSGGTAALGCLVKDYFPEPVTVSWNSGALTSGVHTFPAVLQSSGLYSLSSVVTVPSSSLGTQTYICNVNHKPSNTKVDKKVEPKSCDGGGGSGGGGSEVQLQQSGPELVKPGASVKMSCKASGYTFTSYVMHWVKQKPGQGLEWIGYVNPYNDDTKYNEKFRGKATLTSDKSSSTAYMELSSLTSEDSAVYYCARSYYYYSMDNWGQGTSVTVSSASTKGPSVFPLAPSSKSTSGGTAALGCLVEDYFPEPVTVSWNSGALTSGVHTFPAVLQSSGLYSLSSVVTVPSSSLGTQTYICNVNHKPSNTKVDEKVEPKSCDKTHTCPPCPAPEAAGGPSVFLFPPKPKDTLMISRTPEVTCVVVDVSHEDPEVKFNWYVDGVEVHNAKTKPREEQYNSTYRVVSVLTVLHQDWLNGKEYKCKVSNKALGAPIEKTISKAKGQPREPQVCTLPPSRDELTKNQVSLSCAVKGFYPSDIAVEWESNGQPENNYKTTPPVLDSDGSFFLVSKLTVDKSRWQQGNVFSCSVMHEALHNHYTQKSLSLSP
heavy 2: not shown
B5: TfR/Nada/anti-Biotin control antibody 9903 (bispecific antibody, human IgG1, kappa, L234A L235A)
heavy 1: not shown
light 1: B2 light 1 with R122E, K123Q
heavy 2: EVQLVESGGGLVQPGGSLRLSCAASGFSIAGTAIHWVRQAPGKGLEWVASISPGGGSTAYADSVKGRFTISADTSKNTAYLQMNSLRAEDTAVYYCSRSGGSGASAMDYWGQGTLVTVSSASVAAPSVFIFPPSDEQLKSGTASVVCLLNNFYPREAKVQWKVDNALQSGNSQESVTEQDSKDSTYSLSSTLTLSKADYEKHKVYACEVTHQGLSSPVTKSFNRGECDKTHTCPPCPAPEAAGGPSVFLFPPKPKDTLMISRTPEVTCVVVDVSHEDPEVKFNWYVDGVEVHNAKTKPREEQYNSTYRVVSVLTVLHQDWLNGKEYKCKVSNKALGAPIEKTISKAKGQPREPQVCTLPPSRDELTKNQVSLSCAVKGFYPSDIAVEWESNGQPENNYKTTPPVLDSDGSFFLVSKLTVDKSRWQQGNVFSCSVMHEALHNHYTQKSLSLSPGKGGGGSGGGGSDIQMTQSPSSLSASVGDRVTITCRASGNIHNYLSWYQQKPGKVPKLLIYSAKTLADGVPSRFSGSGSGTDFTLTISSLQPEDVATYYCQHFWSSIYTFGCGTKLEIKRGGGGSGGGGSGGGGSGGGGSQVQLVQSGAEVKKPGSSVKVSCKSSGFNNKDTFFQWVRQAPGQCLEWMGRIDPANGFTKYAQKFQGRVTITADTSTSTAYMELSSLRSEDTAVYYCARWDTYGAAWFAYWGQGTLVTVSS
light 2: DIQMTQSPSSLSASVGDRVTITCRASQDVGSGVAWYQQKPGKAPKLLIGSASGLYSGVPSRFSGSRSGTDFTLTISSLQPEDFATYYCQQSASGGSTFGQGTKVEIKSSASTKGPSVFPLAPSSKSTSGGTAALGCLVKDYFPEPVTVSWNSGALTSGVHTFPAVLQSSGLYSLSSVVTVPSSSLGTQTYICNVNHKPSNTKVDKKVEPKSC
notes: monovalent for TfR; also called αTfR/Nada; Nada/αTfR

Key:
[1] = target: T1, human PD1 on cells (Jurkat cells expressing human PD1; activated human T cells) (human, UniProt Q15116 25-288); experiment: cell-based or functional assay
[2] = target: T1, human PD1 on cells (Jurkat cells …); experiment: cell-based or functional assay; remark: listed apart in the source
[3] = target: T1, human PD1 on cells (Jurkat cells …); experiment: cell-based or functional assay; remark: listed apart in the source
[4] = target: T1, human PD1 on cells (Jurkat cells …); experiment: cell-based or functional assay; remark: listed apart in the source
[5] = target: T1, human PD1 on cells (Jurkat cells …); experiment: cell-based or functional assay; remark: listed apart in the source
[6] = target: T2, human TfR on cells (Jurkat cells; activated human T cells) (human, UniProt P02786 1-760); experiment: flow cytometry, Jurkat cells (WT, PD-1 low, PD-1 high), 2 h on ice, detection with biotinylated Cy5 (Median APC)
T2 construct: also called Transferrin receptor; CD71
T2 sequence (P02786 whole entry): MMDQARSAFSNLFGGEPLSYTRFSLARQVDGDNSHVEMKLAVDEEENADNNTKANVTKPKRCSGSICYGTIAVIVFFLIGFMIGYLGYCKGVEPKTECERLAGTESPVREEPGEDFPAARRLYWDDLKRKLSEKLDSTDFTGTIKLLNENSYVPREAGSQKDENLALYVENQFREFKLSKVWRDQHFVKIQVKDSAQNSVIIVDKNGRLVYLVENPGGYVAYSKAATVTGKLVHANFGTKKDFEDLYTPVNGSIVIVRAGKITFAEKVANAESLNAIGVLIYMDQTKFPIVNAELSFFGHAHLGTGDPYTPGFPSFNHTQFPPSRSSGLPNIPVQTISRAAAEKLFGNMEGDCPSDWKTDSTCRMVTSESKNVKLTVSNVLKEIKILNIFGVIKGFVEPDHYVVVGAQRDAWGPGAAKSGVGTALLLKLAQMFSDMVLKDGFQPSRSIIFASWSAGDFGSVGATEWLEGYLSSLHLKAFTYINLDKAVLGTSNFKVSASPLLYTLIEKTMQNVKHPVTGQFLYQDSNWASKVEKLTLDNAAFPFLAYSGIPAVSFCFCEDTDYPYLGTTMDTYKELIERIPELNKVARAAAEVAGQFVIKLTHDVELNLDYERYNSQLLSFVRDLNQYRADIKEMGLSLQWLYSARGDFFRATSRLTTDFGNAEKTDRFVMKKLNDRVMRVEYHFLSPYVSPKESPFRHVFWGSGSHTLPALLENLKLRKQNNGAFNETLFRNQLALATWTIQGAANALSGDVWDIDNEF

T1 sequence (Q15116 25-288 limits assumed): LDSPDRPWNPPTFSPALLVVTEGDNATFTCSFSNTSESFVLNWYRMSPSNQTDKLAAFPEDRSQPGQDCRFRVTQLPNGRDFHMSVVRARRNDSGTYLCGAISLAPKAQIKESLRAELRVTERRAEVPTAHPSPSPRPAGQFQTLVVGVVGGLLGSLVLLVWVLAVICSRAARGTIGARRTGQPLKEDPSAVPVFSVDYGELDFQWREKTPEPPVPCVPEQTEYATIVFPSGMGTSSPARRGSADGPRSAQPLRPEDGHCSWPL

| Binder | Fold activity vs. control (EC50 of Granzyme B, mMLR), control 8019 [1] | Fold activity vs. control (EC50 of Granzyme B, mMLR), control PD1-0103-312 [2] | EC50 (pM) of Granzyme B production, mMLR [3] | Fold activity vs. control (EC50 of Granzyme B, mMLR), control PD1-0103-0312 [4] | Fold activity vs. control (EC50 of Granzyme B, mMLR), control 8158 [5] | Fold activity vs. control (EC50 of Granzyme B, mMLR), control 8159 [5] | binding result [6] |
| --- | --- | --- | --- | --- | --- | --- | --- |
| B1 | 1510 fold vs 8019 | 1.92 fold vs PD1-0103-312 | 121 pM |  |  |  |  |
| B2 | 4720 fold vs 8019 | 5.97 fold vs PD1-0103-312 | 139 pM |  |  |  |  |
| B3 |  |  | 25.8 pM | 7.83 fold vs PD1-0103-0312 | 4.44 fold vs 8158 |  |  |
| B4 |  |  | 12 pM | 6.6 fold vs PD1-0103-0312 |  | 16.3 fold vs 8159 |  |
| B5 |  |  |  |  |  |  | binds |
